Measured values reported in the supplement of paper PMC10567573.

B1: TRAF3IP2 (parent)
chain: APWNYHYHCPGSPDHQVPYGHDYP

Variants of: B1
Test: protein stability index of a GFP-peptide fusion (GPS, HEK-293T) (PSI 1-6); higher = more stable
Conditions: c terminus: a fixed tail appended
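Further: lentivirally expressed fusions sorted by FACS into six bins by GFP to DsRed ratio, PSI derived from sequencing read proportions per bin multiplied by bin number.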

| Variant | protein stability index |
| --- | --- |
| AHWNYHYHCPGSPDHQVPYGHDYP | 2.26 |
| APYNYHYHCPGSPDHQVPYGHDYP | 3.04 |
| APNNYHYHCPGSPDHQVPYGHDYP | 4.12 |
| APCNYHYHCPGSPDHQVPYGHDYP | 4.01 |
| APANYHYHCPGSPDHQVPYGHDYP | 3.6 |
| APDNYHYHCPGSPDHQVPYGHDYP | 4.04 |
| APTNYHYHCPGSPDHQVPYGHDYP | 4.03 |
| APSNYHYHCPGSPDHQVPYGHDYP | 3.95 |
| APINYHYHCPGSPDHQVPYGHDYP | 3.39 |
| APLNYHYHCPGSPDHQVPYGHDYP | 3.03 |
| APFNYHYHCPGSPDHQVPYGHDYP | 2.22 |
| APQNYHYHCPGSPDHQVPYGHDYP | 3.54 |
| APENYHYHCPGSPDHQVPYGHDYP | 4.48 |
| APMNYHYHCPGSPDHQVPYGHDYP | 3.08 |
| APVNYHYHCPGSPDHQVPYGHDYP | 2.52 |
| APKNYHYHCPGSPDHQVPYGHDYP | 3.05 |
| APRNYHYHCPGSPDHQVPYGHDYP | 3.72 |
| APGNYHYHCPGSPDHQVPYGHDYP | 3.43 |
| APHNYHYHCPGSPDHQVPYGHDYP | 3.51 |
| APWYYHYHCPGSPDHQVPYGHDYP | 2.54 |
| APWDYHYHCPGSPDHQVPYGHDYP | 3.54 |
| APWIYHYHCPGSPDHQVPYGHDYP | 2.43 |
| APWAYHYHCPGSPDHQVPYGHDYP | 1.7 |
| APWKYHYHCPGSPDHQVPYGHDYP | 2.24 |

| Variant | protein stability index |
| --- | --- |
| APWGYHYHCPGSPDHQVPYGHDYP | 2 |
| APWFYHYHCPGSPDHQVPYGHDYP | 2.63 |
| APWSYHYHCPGSPDHQVPYGHDYP | 3.36 |
| APWEYHYHCPGSPDHQVPYGHDYP | 3.39 |
| APWHYHYHCPGSPDHQVPYGHDYP | 1.97 |
| APWPYHYHCPGSPDHQVPYGHDYP | 2.59 |
| APWWYHYHCPGSPDHQVPYGHDYP | 1.51 |
| APWTYHYHCPGSPDHQVPYGHDYP | 2.63 |
| APWCYHYHCPGSPDHQVPYGHDYP | 2.17 |
| APWLYHYHCPGSPDHQVPYGHDYP | 2.26 |
| APWVYHYHCPGSPDHQVPYGHDYP | 2.12 |
| APWQYHYHCPGSPDHQVPYGHDYP | 3.04 |
| APWMYHYHCPGSPDHQVPYGHDYP | 2.78 |
| APWNYHGHCPGSPDHQVPYGHDYP | 3.43 |
| APWNYHVHCPGSPDHQVPYGHDYP | 2.67 |
| APWNYHMHCPGSPDHQVPYGHDYP | 1.5 |
| APWNYHTHCPGSPDHQVPYGHDYP | 2.85 |
| APWNYHLHCPGSPDHQVPYGHDYP | 2.6 |
| APWNYHCHCPGSPDHQVPYGHDYP | 2.49 |
| APWNYHHHCPGSPDHQVPYGHDYP | 3.42 |
| APWNYHQHCPGSPDHQVPYGHDYP | 3.83 |
| APWNYHNHCPGSPDHQVPYGHDYP | 3.4 |
| APWNYHFHCPGSPDHQVPYGHDYP | 2.4 |
| APWNYHPHCPGSPDHQVPYGHDYP | 3.29 |

| Variant | protein stability index |
| --- | --- |
| APWNYHKHCPGSPDHQVPYGHDYP | 2.91 |
| APWNYHAHCPGSPDHQVPYGHDYP | 3.15 |
| APWNYHWHCPGSPDHQVPYGHDYP | 1.99 |
| APWNYHSHCPGSPDHQVPYGHDYP | 2.82 |
| APWNYHEHCPGSPDHQVPYGHDYP | 3.6 |
| APWNYHRHCPGSPDHQVPYGHDYP | 3.09 |
| APWNYHIHCPGSPDHQVPYGHDYP | 2.52 |
| APWNYHDHCPGSPDHQVPYGHDYP | 3.79 |
| APWNYKYHCPGSPDHQVPYGHDYP | 2.97 |
| APWNYYYHCPGSPDHQVPYGHDYP | 2.02 |
| APWNYWYHCPGSPDHQVPYGHDYP | 2.59 |
| APWNYPYHCPGSPDHQVPYGHDYP | 3.38 |
| APWNYFYHCPGSPDHQVPYGHDYP | 2.14 |
| APWNYLYHCPGSPDHQVPYGHDYP | 2.39 |
| APWNYQYHCPGSPDHQVPYGHDYP | 2.97 |
| APWNYSYHCPGSPDHQVPYGHDYP | 3.2 |
| APWNYIYHCPGSPDHQVPYGHDYP | 2.42 |
| APWNYTYHCPGSPDHQVPYGHDYP | 2.94 |
| APWNYNYHCPGSPDHQVPYGHDYP | 3.15 |
| APWNYGYHCPGSPDHQVPYGHDYP | 2.96 |
| APWNYAYHCPGSPDHQVPYGHDYP | 2.73 |
| APWNYDYHCPGSPDHQVPYGHDYP | 3.57 |
| APWNYCYHCPGSPDHQVPYGHDYP | 3.34 |
| APWNYRYHCPGSPDHQVPYGHDYP | 2.9 |

| Variant | protein stability index |
| --- | --- |
| APWNYMYHCPGSPDHQVPYGHDYP | 2.54 |
| APWNYVYHCPGSPDHQVPYGHDYP | 1.94 |
| APWNYEYHCPGSPDHQVPYGHDYP | 4.43 |
| APWNFHYHCPGSPDHQVPYGHDYP | 2.19 |
| APWNQHYHCPGSPDHQVPYGHDYP | 2.94 |
| APWNSHYHCPGSPDHQVPYGHDYP | 3.47 |
| APWNLHYHCPGSPDHQVPYGHDYP | 3.3 |
| APWNGHYHCPGSPDHQVPYGHDYP | 3.96 |
| APWNDHYHCPGSPDHQVPYGHDYP | 3.93 |
| APWNHHYHCPGSPDHQVPYGHDYP | 2.63 |
| APWNCHYHCPGSPDHQVPYGHDYP | 3.43 |
| APWNTHYHCPGSPDHQVPYGHDYP | 3.52 |
| APWNKHYHCPGSPDHQVPYGHDYP | 3.14 |
| APWNNHYHCPGSPDHQVPYGHDYP | 3.43 |
| APWNWHYHCPGSPDHQVPYGHDYP | 2.91 |
| APWNEHYHCPGSPDHQVPYGHDYP | 4.08 |
| APWNIHYHCPGSPDHQVPYGHDYP | 3.64 |
| APWNAHYHCPGSPDHQVPYGHDYP | 3.65 |
| APWNPHYHCPGSPDHQVPYGHDYP | 3.84 |
| APWNMHYHCPGSPDHQVPYGHDYP | 3 |
| APWNVHYHCPGSPDHQVPYGHDYP | 3.21 |
| APWNRHYHCPGSPDHQVPYGHDYP | 3.04 |
